From patent US5717058A, “Peptide inhibitors of tax-dependent transcription” (priority 1994, dated 1998)
“Also recorded” adds a separate entry of the source. No end group written: not given here.

Key:
[1] = solubility in aqueous solution; assay type: physicochemical
[2] = biological target: T1, Tax-CREB interaction (Homo sapiens, UniProt P16220); experiment: EMSA, inhibition of Tax-mediated enhancement of CREB binding to HTLV-I 21 bp repeat DNA; settings: for fold enhancement: 200 nM Tax
T1 construct: made in house
From the text: The HTLV-I transactivator Tax enhances the binding of CREB to the 21 bp repeat sequences contained in the HTLV-I LTR (Zhao and Giam (1992) PNAS 89:7070-7074; Franklin et al. 1993 J. Biol. Chem. 268:21225-21231; Wagner and Green, 1993 Science 262:395-399). We are testing whether peptides representing portions of the primary sequence of Tax can disrupt the Tax-CREB interaction as measured by EMSA.
Purified recombinant CREB was isolated as previously published (Franklin et al. 1993 J. Biol. Chem. 268:21225-21231) and active DNA-binding CREB was purified by heparin-agarose chromatography. Purified recombinant TaxH6 (contains a six-histidine purification tag at the C-terminus of Tax) was isolated an purified as previously published (Zhao and Giam (1991) PNAS 88:12445-11449; Franklin et al. 1993 J. Biol. Chem. 268:21225-21231). Peptides were synthesized and purified as described in Example 1. The third HTLV-I 21 bp repeat (Seq. ID. No. 43) was cloned into the Bgl II site of pUC19. The 70 bp DNA probe fragment was excised with Kpn I and Hind III, phosphatased and gel purified.
EMSA reactions contained 0.1-2.0 nM [^32 P]end-labeled double stranded site 3 probe, 5-50 ng poly (dI-dC) carrier DNA, 1-5 nM purified recombinant CREB, 100-200 nM purified recombinant TaxH6, 15 mM HEPES pH 8.0, 1.5% DMSO, 25 mM Tris-HCl pH 7.9, 6.25 mM MgCl2, 0.5 mM EDTA, 0.5 mM DTT, 60-120 mM KCl, and 10% (v/v) glycerol, and candidate peptide inhibitors in a 20 μl reaction volume. CREB was incubated with the peptides or mock buffer (5% DMSO 50 mM HEPES pH 8.0) for 2-5 min. at room temp. then TaxH6 and DNA mixture were added. The complete reaction mixture was incubated 10-20 min. further at room temp. then analyzed on 5% non-denaturing polyacrylamide gels (49:1, acrylamide:N,N-methylene bisacrylamide). The electrophoresis buffer contained 0.04M Tris, 0.306M glycine, pH 8.5, and 0.1% Nonidet P-40. Gels were dried were autoradiographed. Relative amounts of protein-DNA complex were quantitated using Phosphor Image Analysis.
The primary amino acid sequence of Tax was divided into 29 peptides 20 amino adds in length with an overlap of eight amino acids (see Detailed Description of the Invention and Example 1). The number of the first amino acid in each peptide corresponds to its position in the primary sequence of Tax. Six peptides were tested by EMSA for inhibition of Tax-mediated enhancement. The percentage of radiolabeled DNA probe shifted into protein-DNA complexes in each reaction was quantitated by phosphorimage analysis. Fold enhancement was calculated by dividing the amount of probe shifted in each reaction by the amount of probe shifted in reactions containing CREB, DNA and mock peptide buffer (Table 1). Reactions in Table 1 contained 0.5 nM radiolabeled DNA probe, 10 ng poly dIdC, 1.25% v/v DMSO, 12.5 mM HEPES pH 8.0, 25 mM Tris pH 7.9, 6.25 mM MgCl2, 75 mM KCl, 0.5 mM EDTA, 0.5 mM DTT, 10% v/v glycerol, and CREB, Tax and peptide as indicated in a final volume of 20 μL.
Reactions in Table 2 contained 0.5 nM radiolabeled DNA probe, 10 ng poly dIdC, 1.75% v/v DMSO, 17.5 mM HEPES pH 8.0, 25 mM Tris pH 7.9, 6.25 mM MgCl2, 75 mM KCl, 0.5 mM EDTA, 0.5 mM DTT, 10% v/v glycerol, and CREB, Tax and peptide as indicated in a final volume of 20 μL. Protein-DNA complexes were quantitated by phosphorimage analysis. Fold enhancement was calculated by dividing the amount of complex formed in each reaction by the amount of complex formed in a reaction containing CREB, DNA, mock Tax buffer and mock peptide buffer.
Reactions in Table 3 contained 0.5 nM radiolabeled DNA probe, 10 ng poly dIdC, 1.75% v/v DMSO, 17.5 mM HEPES pH 8.0, 25 mM Tris pH 7.9, 6.25 mM MgCl2, 75 mM KCl, 0.5 mM EDTA, 0.5 mM DTT, 10% v/v glycerol, and CREB, Tax and peptide as indicated in a final volume of 20 μL. Amount of complex was quantitated by densitometry (PDI). […]

T1 sequence (P16220 whole entry): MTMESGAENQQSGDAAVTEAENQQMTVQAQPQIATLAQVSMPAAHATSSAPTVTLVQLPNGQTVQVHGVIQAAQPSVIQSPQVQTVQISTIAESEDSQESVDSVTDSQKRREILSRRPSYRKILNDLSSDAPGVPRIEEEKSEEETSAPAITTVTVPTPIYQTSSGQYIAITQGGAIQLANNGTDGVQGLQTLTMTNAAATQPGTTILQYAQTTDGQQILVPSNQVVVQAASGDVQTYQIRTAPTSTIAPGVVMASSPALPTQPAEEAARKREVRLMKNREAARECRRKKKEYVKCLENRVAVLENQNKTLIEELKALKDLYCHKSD

## CC(C)C[C@H](NC(=O)[C@H](CC(C)C)NC(=O)[C@H](Cc1c[nH]cn1)NC(=O)[C@H](CC(C)C)NC(=O)[C@H](CO)NC(=O)[C@H](Cc1c[nH]cn1)NC(=O)[C@H](Cc1ccccc1)NC(=O)[C@H](CO)NC(=O)CNC(=O)CNC(=O)[C@H](CCC(=O)O)NC(=O)[C@@H](N)CCC(=O)O)C(=O)N[C@@H](Cc1ccccc1)C(=O)N[C@@H](CCC(=O)O)C(N)=O [Seq ID No. 55, EEGGSFHSLHLLFE]
[1]
  solubility in aqueous solution, in words: more soluble

## HSLHLLFEEY-NH2 [TX303-313, HSLHLLFEEY]
[1]
  solubility in aqueous solution, in words: sparingly soluble

## CC(C)C[C@H](NC(=O)[C@H](CC(C)C)NC(=O)[C@H](Cc1c[nH]cn1)NC(=O)[C@H](CC(C)C)NC(=O)[C@H](CO)NC(=O)[C@H](Cc1c[nH]cn1)NC(=O)[C@H](Cc1ccccc1)NC(=O)[C@@H](N)CO)C(=O)N[C@@H](Cc1ccccc1)C(=O)N[C@@H](CCC(=O)O)C(=O)N[C@@H](CCC(=O)O)C(=O)N[C@@H](CCC(=O)O)C(N)=O [Seq ID No. 54, SFHSLHLLFEEE]
[1]
  solubility in aqueous solution, in words: more soluble

## TX313: 20 amino acid Tax peptide beginning at amino acid 313, overlaps TX301 by 8 amino acids
[2]; EMSA, CREB + Tax + peptide
  effect on Tax-mediated enhancement of CREB binding to DNA (complex formation), in words: slight enhancement of complex formation at some concentrations
[2]; Table 4, TX313 35 μM, 3.4 nM CREB, Tax without peptide 4.48, densitometry
  fold enhancement: 5.16 fold
[2]; Table 4, TX313 70 μM, 3.4 nM CREB, Tax without peptide 4.48, densitometry
  fold enhancement: 5.60 fold
[2]; Table 4, TX313 140 μM, 3.4 nM CREB, Tax without peptide 4.48, densitometry
  fold enhancement: 4.49 fold
[2]; titration in EMSA
  dose dependence of the effect on Tax-mediated enhancement, in words: did not have a dose dependent affect; also recorded: no dose dependence

## CC[C@H](C)[C@H](NC(=O)[C@@H]1CCCN1C(=O)[C@@H](NC(=O)[C@H](CC(N)=O)NC(=O)[C@@H](NC(=O)[C@H](Cc1ccc(O)cc1)NC(=O)[C@H](CCC(=O)O)NC(=O)[C@H](CCC(=O)O)NC(=O)[C@H](Cc1ccccc1)NC(=O)[C@H](CC(C)C)NC(=O)[C@H](CC(C)C)NC(=O)[C@H](Cc1c[nH]cn1)NC(=O)[C@H](CC(C)C)NC(=O)[C@H](CO)NC(=O)[C@H](Cc1c[nH]cn1)NC(=O)[C@H](Cc1ccccc1)NC(=O)[C@@H](N)CO)[C@@H](C)O)[C@@H](C)CC)C(=O)N[C@@H](CO)C(=O)N[C@@H](CC(C)C)C(=O)N[C@@H](CC(C)C)C(N)=O [TX301]
[1]
  solubility in aqueous solution, in words: limited solubility in aqueous solutions; also recorded: sparingly soluble

## FLSEFLHSHL [SCM2, reference compound]
[2]; Table 8, SCM2 0.75 μM, 2.3 nM CREB, Tax without peptide 17.0
  fold enhancement: 17.9 fold
[2]; Table 8, SCM2 1.50 μM, 2.3 nM CREB, Tax without peptide 17.0
  fold enhancement: 17.8 fold
[2]; Table 8, SCM2 7.50 μM, 2.3 nM CREB, Tax without peptide 17.0
  fold enhancement: 14.5 fold
[2]; Table 8, SCM2 15.00 μM, 2.3 nM CREB, Tax without peptide 17.0
  fold enhancement: 9.7 fold
[2]; Table 8, SCM2 75.00 μM, 2.3 nM CREB, Tax without peptide 17.0
  fold enhancement: 3.3 fold
[2]; Table 8, SCM2 150.00 μM, 2.3 nM CREB, Tax without peptide 17.0
  fold enhancement: 1.1 fold

## CC(C)C[C@H](NC(=O)[C@H](CC(C)C)NC(=O)[C@H](Cc1c[nH]cn1)NC(=O)[C@H](CC(C)C)NC(=O)[C@H](CO)NC(=O)[C@H](Cc1c[nH]cn1)NC(=O)[C@H](Cc1ccccc1)NC(=O)[C@@H](N)CO)C(=O)N[C@@H](Cc1ccccc1)C(=O)N[C@@H](CCC(=O)O)C(N)=O [TX301-310, SFHSLHLLFE]
[1]
  solubility in aqueous solution, in words: sparingly soluble

## CC(C)C[C@H](NC(=O)[C@H](CC(C)C)NC(=O)[C@H](Cc1c[nH]cn1)NC(=O)[C@H](CC(C)C)NC(=O)[C@H](CO)NC(=O)[C@H](Cc1c[nH]cn1)NC(=O)[C@H](Cc1ccccc1)NC(=O)[C@H](CO)NC(=O)CNC(=O)CNC(=O)[C@H](CCC(=O)O)NC(=O)[C@@H](N)CCC(=O)O)C(=O)N[C@@H](Cc1ccccc1)C(=O)N[C@@H](CCC(=O)O)C(=O)N[C@@H](CCC(=O)O)C(=O)N[C@@H](CCC(=O)O)C(N)=O [Seq ID No. 56, EEGGSFHSLHLLFEEE]
[1]
  solubility in aqueous solution, in words: more soluble
